Reference: US20090325867A1, “RECEPTOR-SPECIFIC TUMOUR NECROSIS FACTOR-RELATED APOPTOSIS-INDUCING LIGAND (TRAIL) VARIANTS” (MEDICAL RESEARCH COUNCIL, priority 2005, published 2009)

B1: HGS-ETR2 (antibody, INN chains, looked up, V domains shown)
VH: EVQLVQSGGGVERPGGSLRLSCAASGFTFDDYGMSWVRQAPGKGLEWVSGINWNGGSTGYADSVKGRVTISRDNAKNSLYLQMNSLRAEDTAVYYCAKILGAGRGWYFDLWGKGTTVTVSS
VL: SSELTQDPAVSVALGQTVRITCQGDSLRSYYASWYQQKPGQAPVLVIYGKNNRPSGIPDRFSGSSSGNTASLTITGAQAEDEADYYCNSRDSSGNHVVFGGGTKLTVL
B2: TRAIL.R1-5: 6His TRAIL 95-281 with 193Ser, 199Val, 201Arg, 213Trp and 215Asp (protein)
chain: TSEETISTVQEKQQNISPLVRERGPQRVAAHITGTRGRSNTLSSPNSKNEKALGRKINSWESSRSGHSFLSNLHLRNGELVIHEKGFYYIYSQTYFRFSEEIKEVTRNDKQMVQYIYKWTDYPDPILLMKSARNSCWSKDAEYGLYSIYQGGIFELKENDRIFVSVTNEHLIDMDHEASFFGAFLVG
modifications: biotin (site not stated) in the DISC analysis only; not biotinylated in the apoptosis assays
notes: 6His TRAIL 95-281 with 193Ser, 199Val, 201Arg, 213Trp and 215Asp

Assays:
Ramos cells = assay: Apoptosis by phosphatidylserine (PS) externalization in Ramos cells; assay type: cell-based; conditions: for ability to induce apoptosis in Ramos cells (in words): PS externalization, compared with wt TRAIL
Method: (§1) Cells were also exposed to HGS-ETR1 or HGSETR2 (1 μg ml^−1). C: Ramos or Jurkat cells were pre-incubated for 30 min either alone or with TRAIL-R1 blocking Ab or TRAIL-R2 neutralizing Ab (5 μg ml^−1). […] D: Ramos and Jurkat cells were exposed to wt TRAIL or TRAIL mutants as described above and processing of caspase-3 and -8 determined by Western blot analysis. The asterisk indicates a non-specific band. The lower panel of the blot for detection of the caspase-8 p18 subunit was exposed for twice as long as the upper panel. Apoptosis was assessed by phosphatidylserine externalization and results expressed as the Means±SEM of at least 3 separate determinations.
Ramos, an Epstein-Barr virus-negative Burkitt's lymphoma cell line, and Jurkat T cells (clone E6-1) were cultured as described (MacFarlane et al (2005 Cell Death and Differentiation vol 12 pages 773-782)). Blood samples were obtained from CLL patients, with patient consent and local ethical committee approval and CLL cells purified as described (MacFarlane et al (2002 Oncogene 21, 6809-6818). Cells were incubated for 16 h with depsipeptide (10 nM), provided by Dr. E. Sausville (NCI, USA). Cells were then cultured for a further 6 h with either HGSETR1 or HGS-ETR2, agonistic mAbs to TRAIL-R1 or -R2, respectively (Human Genome Sciences, Rockville, Md.), His-TRAIL-LE (a recombinant TRAIL with low endotoxin—Alexis Corporation, Nottingham, UK), His-TRAIL, a similar form of human recombinant TRAIL (MacFarlane et al (1997 J Biol Chem 272, 25417-25420)) but not further purified to reduce endotoxin levels or a mutant form of His-TRAIL as described (MacFarlane et al., 2005 ibid.). Cell lines were also pre-incubated for 30 min with a TRAIL-R1 blocking Ab and a TRAIL-R2 neutralizing Ab from Alexis and R&D systems, respectively, prior to exposure to TRAIL. Freshly isolated cells from patients with MCL were isolated, purified and incubated with different forms of TRAIL as described above for CLL cells. Samples were either analyzed immediately for apoptosis or stored at −80° C. for subsequent Western blotting. Other methods and reagents were as described (Inoue (2004 Cell Death Differ 11 Suppl 2, S193-206); MacFarlane et al., 2005 ibid).
(§2) Apoptosis was quantified by phosphatidylserine (PS) externalization in the presence of propidium iodide as described (MacFarlane et al., 2002 ibid.). Samples for Western blot analysis were prepared and caspase processing detected as described (Inoue et al., 2004 ibid.; MacFarlane et al., 2005 ibid.).
Ramos and Jurkat T cells (clone E6-1) were cultured as described (MacFarlane et al, 2005 ibid.). The breast tumour cell line, MCF-7 (clone F43) was cultured as described previously (MacFarlane et al., 2000 J. Cell Biol. 148, 1239-1254). Cells were cultured for either 4 h (Ramos and Jurkat) or 6 h (MCF-7) with His-TRAIL (MacFarlane et al, 1997 J Biol Chem 272, 25417-25420), HGS-ETR1 or HGS-ETR2 (Human Genome Sciences), or a mutant form of His-TRAIL (MacFarlane et al, 2005 ibid.). Samples were analyzed for apoptosis, Western blotting, or TRAIL DISC activation as described (MacFarlane et al, 2005 ibid.; MacFarlane et al. 2002 Oncogene 21, 6809-6818). Mutants of His-TRAIL (residues 95-281) were generated using the Quik-Change site-directed mutagenesis kit (Stratagene, Calif.), confirmed by DNA sequencing, expressed in E. coli and purified as described (MacFarlane et al, 1997 ibid.). For siRNA targeting of TRAIL-R1/-R2, MCF-7 cells were seeded into six-well plates immediately prior to effectene-mediated RNAi transfection with either a negative control siRNA (30 nM, Ambion, #4611), or preannealed siRNA oligonucleotides for TRAIL-R1 or TRAIL-R2 (30 nM, Ambion), with the sequence and validity described (Ren et al, 2004 Mol. Biol. Cell vol 15 pp 5064-5074). After 40 h of transfection the cells were collected and total TRAIL-R1 or TRAIL-R2 levels assessed. […]

primary MCL cells = assay: Apoptosis in freshly isolated primary MCL cells with or without depsipeptide pre-treatment; assay type: cell-based, human; conditions: pre-treatment 16 h with depsipeptide (5 nM), depsipeptide alone 35.4±5%
Method: Cell lines were also pre-incubated for 30 min with a TRAIL-R1 blocking Ab and a TRAIL-R2 neutralizing Ab from Alexis and R&D systems, respectively, prior to exposure to TRAIL. Freshly isolated cells from patients with MCL were isolated, purified and incubated with different forms of TRAIL as described above for CLL cells. Samples were either analyzed immediately for apoptosis or stored at −80° C. for subsequent Western blotting. Other methods and reagents were as described (Inoue (2004 Cell Death Differ 11 Suppl 2, S193-206); MacFarlane et al., 2005 ibid).
as §2
We also obtained three samples from patients with mantle cell lymphoma (MCL), an incurable and aggressive disease that accounts for ˜6% of all non-Hodgkin's lymphoma. There are no standard treatments for MCL and the prognosis is very poor particularly for the blastoid variant. MCL cells were isolated and exposed to the different forms of TRAIL after pre-treatment for 16 h with depsipeptide (5 nM).

Jurkat cells = assay: Caspase-8 and -3 processing by Western blot in Jurkat cells; assay type: cell-based; conditions: FIG. 1D
Method: as §1, §2
To confirm that the mutants were inducing apoptosis, we examined their effects on the processing of caspase-8, the apical caspase in death receptor-induced apoptosis and caspase-3, an effector caspase.

Molecule | ability to induce apoptosis in Ramos cells (in words) (Ramos cells) | apoptosis, ligand or antibody after depsipeptide pre-treatment (primary MCL cells) [%] | processing of caspases-8 and -3 (Jurkat cells) | inhibition of ligand-induced apoptosis by receptor blocking antibodies (Ramos cells; 30 min pre-incubation with TRAIL-R1 blocking Ab or TRAIL-R2 neutralizing Ab (5 μg ml^−1)) | concentration-response of apoptosis compared with wt TRAIL (Ramos cells; 4 h, FIG. 1B) | % PS+ cells, Ramos (Ramos cells; 4 h exposure, 500 ng ml^−, Mean ± SEM of at least three determinations) [%]
B1 | not in Ramos cells | 38.3±4.3 | most potent |  |  | 
B2 | retained most of the activity of wt TRAIL | 54.3±9.1 | small amount of caspase processing | blocking antibody specific to TRAIL-R1 but not to TRAIL-R2 to inhibit apoptosis | very similar concentration-response to wt TRAIL | 35.9 ± 6.4
